Reference: the supplement of paper PMC7877785
± gives the uncertainty stated by the source.

Test: self-splicing fitness, log relative to wild type (ln ratio); higher = more splicing; Tetrahymena group I intron in knt gene, E. coli kanamycin selection, DiMSum; sequences stand for … in CUCUCU…GGAGGGAAAAGUUAUCAGGCAUGCACCUGGUAGCUAGUCUUUAAACCAAUAGAUUGCAUCGGUUUAAAAGGCAAGACCGUCAAAUUGCGGGAAAGGGGUCAACAGCCGUUCAGUACCAAGUCUCAGGGGAAACUUUGAGAUGGCCUUGCAAAGGGUAUGGUAAUAAGCUGACGGACAUGGUCCUAACCACGCAGCCAAGUCCUAAGUCAACAGAUCUUCUGUUGAUAUGGAUGCAGUUCACAGACUAAAUGUCGGUCGGGGAAGAUGUAUUCUUCUCAUAAGAUAUAGUCGGACCUCUCCUUAAUGGGAGCUAGCGGAUGAAGUGAUGCAACACUGGAGCCGCUGGGAACUAAUUUGUAUGCGAAAGUAUAUUGAUUAGUUUUGGAGUACUCGUGGUCG
Outline: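 Pooled colonies went to amplicon sequencing on an Illumina HiSeq 2500 after six replicate transformations. The plates were LB agar with 100 μg/mL carbenicillin, 50 μM IPTG and 0.2% rhamnose, with or without 25 μg/mL kanamycin, incubated overnight at 37°C or 30°C. The E. coli BL21(DE3) library had all eight P1ex-region intron nucleotides randomised, the intron placed in the knt kanamycin-resistance gene on pET-22b(+). DiMSum fitness is the error-weighted combination of replicate fold changes, kanamycin against none, normalised to wild type.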

| Sequence | self-splicing fitness (ln) (30 °C) | self-splicing fitness (ln) (37 °C) |
| --- | --- | --- |
| AGGGAGCAAUAUUACGCGGC | -1.89 ± 0.2 | -2.05 ± 0.31 |
| UCCAAGCAAUAUUACGACGA | -0.735 ± 0.07 | 0.11 ± 0.096 |
| UUCUAGCAAUAUUACGAAAG | – | -2.87 ± 0.32 |
| GGCAAGCAAUAUUACGUUGU | -3.52 ± 0.16 | -2.6 ± 0.21 |
| GUCGAGCAAUAUUACGUUCG | -3.55 ± 0.3 | -1.86 ± 0.25 |
| UACGAGCAAUAUUACGGCAA | -1.96 ± 0.24 | -0.476 ± 0.18 |
| GUCGAGCAAUAUUACGAAAU | – | -1.29 ± 0.49 |
| AAGUAGCAAUAUUACGCCAU | -2.41 ± 0.23 | -0.903 ± 0.26 |
| UUACAGCAAUAUUACGAACU | -2.26 ± 0.15 | -0.279 ± 0.13 |
| CACUAGCAAUAUUACGAGUG | -3.45 ± 0.2 | -2.73 ± 0.22 |
| GCUGAGCAAUAUUACGGGGC | -3.02 ± 0.24 | -3.85 ± 0.42 |
| AGGCAGCAAUAUUACGUAAU | -1.94 ± 0.088 | -0.867 ± 0.088 |
| AUGAAGCAAUAUUACGUCCU | -0.113 ± 0.093 | 0.0551 ± 0.11 |
| GUGCAGCAAUAUUACGGCCA | -0.211 ± 0.11 | -0.818 ± 0.14 |
| GGCUAGCAAUAUUACGCUCG | -2.15 ± 0.24 | -0.647 ± 0.19 |
| GUCGAGCAAUAUUACGCCUA | – | -1.1 ± 0.41 |
| CACAAGCAAUAUUACGACCU | -1.71 ± 0.19 | -2.1 ± 0.2 |
| AGCUAGCAAUAUUACGACUA | -0.935 ± 0.14 | -0.86 ± 0.13 |
| CAACAGCAAUAUUACGUAAU | -2.46 ± 0.08 | -2 ± 0.12 |
| GCCGAGCAAUAUUACGAGGG | -3.58 ± 0.27 | -1.91 ± 0.22 |
| CUCAAGCAAUAUUACGGGUC | -4.31 ± 0.17 | -2.48 ± 0.12 |
| UUCGAGCAAUAUUACGACGA | -0.356 ± 0.3 | -0.0591 ± 0.21 |
| CUACAGCAAUAUUACGCGCU | -3.59 ± 0.28 | -1.5 ± 0.23 |
| CGUUAGCAAUAUUACGACUA | -1.12 ± 0.16 | 0.415 ± 0.14 |
| UCCUAGCAAUAUUACGUGUG | -2.41 ± 0.28 | -2.47 ± 0.22 |

| Sequence | self-splicing fitness (ln) (30 °C) | self-splicing fitness (ln) (37 °C) |
| --- | --- | --- |
| UCAAAGCAAUAUUACGCGGG | -3.64 ± 0.19 | -2.14 ± 0.16 |
| CAGUAGCAAUAUUACGAUCU | -1.52 ± 0.15 | -1.15 ± 0.19 |
| AAGUAGCAAUAUUACGCCAC | -3.93 ± 0.36 | -2.49 ± 0.42 |
| UGAGAGCAAUAUUACGACGG | -2.66 ± 0.2 | -2.56 ± 0.25 |
| AAUCAGCAAUAUUACGUGCA | -0.181 ± 0.067 | 0.221 ± 0.084 |
| AGCAAGCAAUAUUACGGCCG | -0.219 ± 0.071 | -0.111 ± 0.094 |
| AUGAAGCAAUAUUACGAUCA | -0.14 ± 0.081 | 0.405 ± 0.11 |
| CACGAGCAAUAUUACGAAUA | -2.08 ± 0.12 | -2.23 ± 0.16 |
| AGCUAGCAAUAUUACGCUGU | -2.86 ± 0.2 | -3.07 ± 0.32 |
| GCCCAGCAAUAUUACGGUGC | -3.13 ± 0.14 | -2.52 ± 0.18 |
| GACAAGCAAUAUUACGCUGC | -3.6 ± 0.16 | -2.87 ± 0.19 |
| AGCGAGCAAUAUUACGGAUA | -2.18 ± 0.39 | -2.17 ± 0.34 |
| ACUCAGCAAUAUUACGGUGG | -4.04 ± 0.22 | -2.67 ± 0.18 |
| AUAAAGCAAUAUUACGUUAA | -1.62 ± 0.087 | -1.16 ± 0.12 |
| GCAUAGCAAUAUUACGAAGA | -2 ± 0.23 | -0.497 ± 0.16 |
| GACAAGCAAUAUUACGGGUG | -0.472 ± 0.065 | -0.733 ± 0.081 |
| UCAUAGCAAUAUUACGUGUA | -2.35 ± 0.13 | -1.84 ± 0.14 |
| GACUAGCAAUAUUACGUUAG | -4.25 ± 0.23 | -3.17 ± 0.23 |
| CAUAAGCAAUAUUACGGCCG | 0.39 ± 0.15 | 0.125 ± 0.16 |
| GGCAAGCAAUAUUACGGUGA | -0.759 ± 0.071 | -0.336 ± 0.077 |
| AAGAAGCAAUAUUACGUACC | -0.392 ± 0.14 | 0.219 ± 0.19 |
| GCCUAGCAAUAUUACGCACG | -1.79 ± 0.23 | -1.43 ± 0.19 |
| AUCCAGCAAUAUUACGAAGG | -3.07 ± 0.2 | -2.8 ± 0.23 |
| GAAAAGCAAUAUUACGUAAG | -2.23 ± 0.11 | -0.733 ± 0.12 |
| GAUCAGCAAUAUUACGGGGG | -3.25 ± 0.18 | -2.51 ± 0.18 |

| Sequence | self-splicing fitness (ln) (30 °C) | self-splicing fitness (ln) (37 °C) |
| --- | --- | --- |
| GUCGAGCAAUAUUACGUCUA | -1.76 ± 0.46 | -0.965 ± 0.33 |
| CGGAAGCAAUAUUACGGGGC | -2.49 ± 0.19 | -2.71 ± 0.26 |
| UUUCAGCAAUAUUACGGUAC | -1.9 ± 0.41 | -2.1 ± 0.26 |
| UGAAAGCAAUAUUACGGUGG | -1.22 ± 0.063 | -1.44 ± 0.093 |
| CGUAAGCAAUAUUACGGAAU | -3.8 ± 0.43 | -1.85 ± 0.22 |
| AUUAAGCAAUAUUACGCGCA | -0.661 ± 0.13 | 0.376 ± 0.16 |
| GUAUAGCAAUAUUACGUCAU | -2.03 ± 0.17 | -0.747 ± 0.17 |
| CCGGAGCAAUAUUACGCCAC | -3.02 ± 0.49 | 0.445 ± 0.34 |
| GCAAAGCAAUAUUACGUGAU | -0.863 ± 0.053 | -0.973 ± 0.075 |
| UAGAAGCAAUAUUACGCUAC | – | -2.23 ± 0.31 |
| UCUCAGCAAUAUUACGAAAG | -1.9 ± 0.26 | -1.36 ± 0.21 |
| UCGCAGCAAUAUUACGUCCU | -1 ± 0.097 | -0.105 ± 0.092 |
| GCGUAGCAAUAUUACGUUGA | -3.16 ± 0.33 | -1.94 ± 0.21 |
| UCCGAGCAAUAUUACGCGUG | -2.6 ± 0.12 | -1.3 ± 0.1 |
| GCAAAGCAAUAUUACGAUAC | -1.69 ± 0.1 | -0.587 ± 0.14 |
| UAAUAGCAAUAUUACGUCCU | -0.907 ± 0.19 | -0.798 ± 0.23 |
| AACUAGCAAUAUUACGCCGC | -2.1 ± 0.23 | – |
| UCGGAGCAAUAUUACGGGCG | -1.37 ± 0.11 | -1.39 ± 0.18 |
| ACCCAGCAAUAUUACGUGUC | -3.36 ± 0.099 | -1.75 ± 0.099 |
| ACCAAGCAAUAUUACGCGGU | -3.54 ± 0.12 | -2.84 ± 0.16 |
| CGUAAGCAAUAUUACGCCUC | -4.31 ± 0.47 | -1.44 ± 0.44 |
| UUUAAGCAAUAUUACGACUC | -0.391 ± 0.24 | -0.881 ± 0.4 |
| CCGCAGCAAUAUUACGGUGU | -3.97 ± 0.16 | -1.89 ± 0.14 |
| AUUAAGCAAUAUUACGCUCG | -0.344 ± 0.11 | 0.171 ± 0.15 |
| CAAUAGCAAUAUUACGGUCU | -3.24 ± 0.31 | -3.15 ± 0.35 |

| Sequence | self-splicing fitness (ln) (30 °C) | self-splicing fitness (ln) (37 °C) |
| --- | --- | --- |
| GGUUAGCAAUAUUACGGUGC | -1.07 ± 0.088 | -0.186 ± 0.12 |
| UCUUAGCAAUAUUACGCUUG | -2.43 ± 0.24 | -1.89 ± 0.23 |
| ACCCAGCAAUAUUACGGCUA | -0.684 ± 0.1 | 0.23 ± 0.1 |
| UAAAAGCAAUAUUACGCGGU | -3.58 ± 0.29 | -2.34 ± 0.27 |
| AUACAGCAAUAUUACGUGUA | -2.3 ± 0.093 | -1.32 ± 0.095 |
| GCCCAGCAAUAUUACGCAGG | -3.19 ± 0.13 | -2.27 ± 0.15 |
| UCGCAGCAAUAUUACGUCUU | -1 ± 0.11 | -0.165 ± 0.12 |
| AUGAAGCAAUAUUACGCUCC | -0.958 ± 0.32 | 0.251 ± 0.35 |
| GUCAAGCAAUAUUACGCUAA | -1.48 ± 0.15 | -1.45 ± 0.14 |
| UUUGAGCAAUAUUACGACCG | – | -1.19 ± 0.4 |
| CGUAAGCAAUAUUACGCUUA | -3.67 ± 0.37 | -2.91 ± 0.23 |
| GAGAAGCAAUAUUACGGCCG | -0.178 ± 0.17 | -0.256 ± 0.34 |
| CCACAGCAAUAUUACGACUA | -3.08 ± 0.25 | -2.88 ± 0.29 |
| CUUUAGCAAUAUUACGAGGA | -2.59 ± 0.32 | -3.02 ± 0.4 |
| CGGCAGCAAUAUUACGCGCC | -4.3 ± 0.43 | -3.04 ± 0.47 |
| CUAGAGCAAUAUUACGCAGG | -2.12 ± 0.14 | -1.75 ± 0.19 |
| GCGUAGCAAUAUUACGCUCC | -1.88 ± 0.2 | -0.401 ± 0.39 |
| CGCGAGCAAUAUUACGGUGC | – | -2.47 ± 0.5 |
| UAAAAGCAAUAUUACGGCUG | 0.0596 ± 0.093 | 0.0696 ± 0.12 |
| AUUCAGCAAUAUUACGUUCA | -1.07 ± 0.12 | -0.606 ± 0.13 |
| AUUUAGCAAUAUUACGUUCA | -0.355 ± 0.17 | -0.395 ± 0.18 |
| CAUCAGCAAUAUUACGGAAU | -2.46 ± 0.12 | -2.11 ± 0.11 |
